The nanobody polyreactivity screen of Harvey et al. (2022)

Assay: yeast display, Sf9 membrane polyspecificity reagent, FACS + sequencing; frameworks hold sequencing errors
Outline: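 A nanobody's polyreactivity label depends on the gate it was sorted from. Yeast display cells were stained with 10% biotinylated, detergent-solubilized Sf9 membrane reagent for 1 hour at 4 °C, enriched on streptavidin microbeads and sorted by FACS. The low and high (top ~1%) gates were set on anti-HA fluorescence for expression and streptavidin fluorescence for reagent binding.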

Sequence	polyreactivity (PSR sort gate)
QVQLVESGGGLVQAGGSLRLSCAASGSIFSGYAMGWYRQAPGKERELVAAISRRGTSTYYADSVKGRFTISRDNAKNTVYLQMNSLKPEDTAVYYCAATYGGRQSYGGFDYWGQGTQVTVSS	high polyreactivity
QVQLVESGGGLVQAGGSLRLSCAASGSIFSGYAMGWYRQAPGKERELVAAITRSGGRTYYADSVKGRFTISRDNAKNTVYLQMNSLKPEDTAVYYCAARGGPGDDYWGQGTQVTVSS	high polyreactivity
QVQLVESGGGLVQAGGSLRLSCAASGSIFSGYVMGWYRQAPGKERELVAAIDNSSGSTYYADSVKGRFTISRDNAKNSVYLQMNSLKPEDTAVYYCAAAYYWKAYSEYDYWGQGTQVTVSS	low polyreactivity
QVQLVESGGGLVQAGGSLRLSCAASGSIFSHNAMGWYRQAPGKERELVAAISWSAASTYYADSVKGRFTISRDNAKNTVYLQMNSLKPEDTAVYYCAAVPYSSTYRYDYWGQGTQVTVSS	low polyreactivity
QVQLVESGGGLVQAGGSLRLSCAASGSIFSHNVMVWYRQAPGKERELVAAISGGGGRTYYADSVKGRFTISRDNAKNTVYLQMNSLKAEDTAVYYCNAYVGLSEGDYWGQGTQVSVSS	high polyreactivity
QVQLVESGGGLVQAGGSLRLSCAASGSIFSIYAMGWYRQAPGKERDFVASITVTDGSTYYADSVKGRFTISRDNAKNTVYLQMNSLKPEDTAVYYCYADGWYALYEWLAVSGYYWGQGTQVTVSS	low polyreactivity
QVQLVESGGGLVQAGGSLRLSCAASGSIFSIYAMGWYRQAPGKERELVAAISWSGGSTYYADSVKGRFTISRDTAKITVYLQMNSLKPEDTAVYYCAAEYEYMWSQYLTEYGYDYWGQGTQVTVSS	low polyreactivity
QVQLVESGGGLVQAGGSLRLSCAASGSIFSKNAMGWYRQAPGKERELVAAISSSGGITYYADSVKVRFTISRDNANNTVYLQMNSLKPEDTAFYYCATLGGAIRQAFEYWGQGTQVNVSS	low polyreactivity
QVQLVESGGGLVQAGGSLRLSCAASGSIFSKYAMGRYRPAPGKERELVAAISRRGGDTYYADSVKGRFTISRDNAKNTVYLQMNSLKPEDTAVYYCAAYQYYLYDYWGQGTQVTVSS	high polyreactivity
QVQLVESGGGLVQAGGSLRLSCAASGSIFSKYAMGWYRPAPGKERELVAAIASSGGSTYYADSVKGRFTISRDNAKNTVYFQMNSLKPEDTAVYYCAAGGRSVRYNYWGQGTQVTVSS	high polyreactivity
QVQLVESGGGLVQAGGSLRLSCAASGSIFSKYAMGWYRQAPGKERELVAAITFRSGSTYYADSVKGRFTISRDNAKNTVYLQMNSLKPEDTAVYYCAADEYYQVSAYDYWGQGTQVTVSS	low polyreactivity
QVQLVESGGGLVQAGGSLRLSCAASGSIFSKYAMGWYRQAPVKERELVAAIDWSGGSTYYADSVKGRFTISRDNAKNTVYLQMNSLKPEDTAVYYCNAEYVVADYGYYTIEFDYWGQGTQVTVSS	low polyreactivity
QVQLVESGGGLVQAGGSLRLSCAASGSIFSKYTMGWYRQAPGKERELVAAISRAGSTYYADSVKGRFTISRDNAKNTVYLQMNSLKPEDTAVYYCAAEWSDSVYYSYEYWGQGTQVTVSS	high polyreactivity
QVQLVESGGGLVQAGGSLRLSCAASGSIFSKYVMGWYRQAPGKQTELVAAISWSGTRTYYADSVKGRFTISRDNAKNTVYLQMNSLKPEDTAVYYCAALRLYAGHQYDYWGQGTQVTVSS	high polyreactivity
QVQLVESGGGLVQAGGSLRLSCAASGSIFSLYAMGWYRQAPGKERELVATISKSGGSTYYADSVKGRFTISRDNAKNTVYLQMNSLKPEDTAVYYCAARLTYTGGQGAYDYWGQGTQVTVSS	high polyreactivity
QVQLVESGGGLVQAGGSLRLSCAASGSIFSLYTMGWYRQAPGKERELVARITTSGGTTRYADSVKGRFTISRDTSKNTVYLQMISLKPEDTAVYYCAADRSPFWRGYVRYNYWGQGTQVTVSS	high polyreactivity
QVQLVESGGGLVQAGGSLRLSCAASGSIFSLYTMGWYRQAPGKERELVATIRSVGSTNYADSVKGRFTISRDNAKNTVYLQMNSLKPEDTAVYYCAAGWYYGVYYIYDYWGQGTQVNVSS	high polyreactivity
QVQLVESGGGLVQAGGSLRLSCAASGSIFSNNAMGWYRPAPGKERELVAAITRSGGNTYYADSVKGRFTISRDNAKNTVYLQMNSLKPEDTAVYYCAASNSHVGPNDYWGQGTQVTVSS	high polyreactivity
QVQLVESGGGLVQAGGSLRLSCAASGSIFSNYDMGWYRQAPGKERELVAGITRSGTNTYYADSVKGRFTISRDNAKNTVYLKMNRLKPEDTAVYYCAAAIRPGMDYWGQGTQVTVSS	high polyreactivity
QVQLVESGGGLVQAGGSLRLSCAASGSIFSPNDMGWYRPAHGKERELVAAITSAGSTFYADSVKGRFTISRDNAKNTVYIQMNSLKPEDTAVDYCSATYISVTDYAYFPLWYGYWGQGTQVTVSS	low polyreactivity
QVQLVESGGGLVQAGGSLRLSCAASGSIFSPYAMGWYRQAPGKERELVAAISFRASTTYYADSVKGRFTISRDNAKNTVYLQMNSLKPEYTAVYYCAKKRPGFLRYGSIGEFQYDYWGQGTQVTVSS	low polyreactivity
QVQLVESGGGLVQAGGSLRLSCAASGSIFSQYAMGWYRQAPGKERELVAAITYGGGSTYYADSVKGRFTISRDNAKNTVYLQMNCLKAEDTALYYCAKEFKYWGYPYDYWGQGTQVTVSS	low polyreactivity

Sequence	polyreactivity (PSR sort gate)
QVQLVESGGGLVQAGGSLRLSCAASGSIFSRNAMGWYRPAPGKERELVAAITSSGGRTYYADSVKGRFTISRDNAKNTVYLQMNSLKPEDTAVYYCAARARGGDWGSGDYWGQGTQVTVSS	high polyreactivity
QVQLVESGGGLVQAGGSLRLSCAASGSIFSRNAMGWYRQAPGKERELVAAISYSGGTTYYADSVKGRFTISRDYAKNTVYLQMNSLKPEDTAVYYCNKRYWVRTGKVSSYDYWGQGTQVSVSS	high polyreactivity
QVQLVESGGGLVQAGGSLRLSCAASGSIFSRNAMGWYRQAPGKERELVAAISYSSGSTYYADSVKGRFTISRDHAKNTVYLQMNSLTPEDTAVYYCAADTTKLQGVEGDYWGQGTQVTVSS	low polyreactivity
QVQLVESGGGLVQAGGSLRLSCAASGSIFSRNAMGWYRQAPGKERELVAAITRSGGRTYYADSVKGRFTISRDNAKNTVYLQMNSLKPEDTAVYYCNALASQEYDYWGQGTQVTVSS	high polyreactivity
QVQLVESGGGLVQAGGSLRLSCAASGSIFSRNAMGWYRQAPGKVRELVAAITGSGSSTYYADSVKGRFTISRDNAKNTVYLQMNSLKPEDTAVYYCAKGSWWGYYSYGFDYWGQGTQVTVSS	high polyreactivity
QVQLVESGGGLVQAGGSLRLSCAASGSIFSRNDMGWYRQAPGKERELVAAITSDDTSTYYADSVNGRFTISRDNAKNTVYLQMNSLKPEDTAVYYCAADYGNPFDYWGQGTQVTVSS	low polyreactivity
QVQLVESGGGLVQAGGSLRLSCAASGSIFSRNTMGWYRQAPGKERELVAGISSSGSRTYYADSVKGRFTISRDNAKYTVYLQMNSLKPEDTAVYYCAAEHQRSRGRRYYIGYDYWGQGTQVTVSS	low polyreactivity
QVQLVESGGGLVQAGGSLRLSCAASGSIFSRNTMGWYRQAPGKERELVATITSGSNTNYADSVKGRFTISRDNAKNTVYLQMNSLKPEDTAVYYWGQGTQVTVSS	low polyreactivity
QVQLVESGGGLVQAGGSLRLSCAASGSIFSRYAMGWSRQAPGKERELVAAISKSGGTTYYADSVKGRFTISRDNAKNTVYLQMNSLKPEDTAVYYCNAKRYRNGSIGMGYWGQGSQVTVSS	high polyreactivity
QVQLVESGGGLVQAGGSLRLSCAASGSIFSRYAMGWYRQAPGKERELVAAISRRRGTTYYADSVKGRFTISRDNAKNTVYLHMNSLKTEDTAVYYCAAVFVTQSFIYDYYYWGQGTQVTVSS	high polyreactivity
QVQLVESGGGLVQAGGSLRLSCAASGSIFSRYAMGWYRQAPGKERELVAAISTIGGSTYYADSVKGRFTISRDNAKNTVYLQMNSLIPEDTAVYYCNARQTAALTPRYGYWGQGTQVTVSS	high polyreactivity
QVQLVESGGGLVQAGGSLRLSCAASGSIFSRYTMGWYRQAPGKERELVAAISGSTTRTYYADSVKGRFTISRDNAKNTVYLQMNSLKPEDTAVYYCAATRGRGGRDDYWGQGTQVTVSS	high polyreactivity
QVQLVESGGGLVQAGGSLRLSCAASGSIFSSNAMGWYIQAPGKERELVAAITSGGSTTYADSVKGRFTISRDNAKNTVNLQMNSLKPEDTAVYYCAADPVYRYYHGWTYLDYDYWGQGTQVTVSS	low polyreactivity
QVQLVESGGGLVQAGGSLRLSCAASGSIFSSNAMGWYRPAPGKERELVAAITSGGSTTYADSVKGRFTISRDNAKNTVYLQMNSLKPEDTAVYYCAADPVYRYYHGWTYLDYDYWGQGTQVTVSS	low polyreactivity
QVQLVESGGGLVQAGGSLRLSCAASGSIFSSNAMGWYRQAPGKERELVAAITSGGSTTYADSVKGRFPISRDNAKNTVYFQMNSLKPEDTAVYYCAADPVYRYYHGWTYLDYDYWGQGTQVTVSS	low polyreactivity
QVQLVESGGGLVQAGGSLRLSCAASGSIFSSNTMGWYRPAPGKERELVAAITSGGGTYYADSVKGRFTISRDNAKNTVSLQMNSLKPEDTAVYYCAAQRVYKSSPSYDYWGQGTLVTVSS	low polyreactivity
QVQLVESGGGLVQAGGSLRLSCAASGSIFSSYAMGWDRQAPGKERELVAAISSGGGSTYYADSVKGRFTISRDNAKHTVYLQMNSLKPEDTAVYYCNAGKEALKTTYTYDYWGQGTQVTVSS	high polyreactivity
QVQLVESGGGLVQAGGSLRLSCAASGSIFSSYAMGWYRQAPGKDRELVAAITRSGGSTYYADSVKGRFTISRDNAKNTVYVQMNSLKPEDTAVYYCNARGKGHYYWGQGTQVTVSS	high polyreactivity
QVQLVESGGGLVQAGGSLRLSCAASGSIFSSYAMGWYRQAPGKERELVAAIDGSGGSTYADSVKGRFTISRDNAKITVYLQMNRLKPEDTAVYYCAVDSFLVYSAVRPYDYWGLGTQVTVSS	low polyreactivity
QVQLVESGGGLVQAGGSLRLSCAASGSIFSSYAMGWYRQAPGKERELVAAISQSGGDTYYADSVKGRFTISRDNAKNTVYLQMNSLKPEDTAVYYCAASFWYYPMDYWGQGTQVTVSS	low polyreactivity
QVQLVESGGGLVQAGGSLRLSCAASGSIFSSYAMGWYRQAPGKERELVAAITTRGDSTRYADSVKGRFTISRDNAKNTVYLQMNSLKPEDTAVYYCAARRRGASKYGYWGQGTQVTVSS	high polyreactivity
